From patent US20250170285A1, “RADIOLABELLED OLIGONUCLEOTIDES AND PROCESS FOR THEIR PREPARATION” (Hoffmann-La Roche Inc., priority 2018, published 2025)
Read-outs that look alike come from different tables or passages of the source.

Assays:
[1] = in vivo
Experimental: (§1) Serial dilutions were made from stock solution (approx. 1 mg/mL in PCR grade water, the exact concentration of the stock solution will be quantified with the spectro-photometric device Nanodrop (Thermo Scientific) based on the extinction coefficient at 260 nm) to generate working solutions in water from approx. 100 ng/mL up to approx. 250000 ng/mL.
(§2) Calibration standards and quality control samples (freshly prepared in plasma, 50 μL) were treated for protein denaturation with 150 μL of 4 M guanidine thiocyanate after addition of the internal standard. After vigorously mixing (20 min at 1600 rpm), 200 μL of a water/hexafluoroisopropanol/diisopropylethylamine solution (100:4:0.2, v/v/v) were added, followed by mixing (15 min at 1500 rpm). Then a clean-up step was performed by means of solid-phase-extraction cartridges (Waters, OASIS HLB 5 mg, 30 μm) after elution and evaporation to dryness (30-45 min at +40° C.) the samples were reconstituted in 200 μL of mobile phase (water/methanol/hexafluoroisopropanol/diisopropylethylamine (95/5/1/0.2, v/v/v/v)). After vortex mixing (10 min at 1500 rpm), an aliquot (20 μL) was injected into a LC-MS/MS system (50 μL loop).
(§3) A Shimadzu 30ADXR pump was used, equipped with a Waters Acquity C18 column (50×2.1 mm) at 60° C. […]

[2] = Single dose PK experiment: liver concentration of tritium labeled LNAs by LSC; format: in vivo; conditions: single dose 1 mg/kg; liver 24, 72 and 336 h after dosing; radioactivity by LSC, FIG. 2
Experimental: A single dose PK experiment with Example 3.b ([^3H]-compound 2 based on conjugate 4) and Example 3.c ([^3H]-compound 3 based on conjugate 7) at 1 mg/kg was done. LNAs were analyzed in liver 24, 72 and 336 h after dosing. The study will confirm the feasibility of oligonucleotides with radioactive conjugation.
A Packard Tri-carb 3100TR was used for LSC analysis.
In FIG. 2 the liver concentration of the tritium labeled compounds of Example 3.b (dotted line) and Example 3.c (continuous line) have been analyzed by LSC.

[3] = Tissue exposure study: liver concentration of unlabeled LNAs by LC-MS/MS; conditions: analyzed by LC-MS/MS, FIG. 1
Experimental: as §1, §2, §3

## 5′-GN2-C6-ca G*A*G*t*t*a*c*t*t*g*c*c*a*A*C*T*-3′ (CAGAGTTACTTGCCAACT; 5'-GalNAc2-C6 conjugate, LNA and phosphorothioate, case key not given here, further chemistry not given here) [GalNAc LNA study compound A]
[1]
  liver concentration (liver uptake): high initial uptake in the liver plasma and a normal decrease over the time

## 5′-GN2-C6-caG*A*G*t*t*a*c*t*t*g*c*c*a*A*C*T*-C6SH-[^3H]-NEM [Example 3.b]
[2]
  liver concentration (liver uptake): equivalent liver uptake as a therapeutic GalNAc LNA

## 5′-G*A*G*t*t*a*c*t*t*g*c*c*a*A*C*T*-3′ (GAGTTACTTGCCAACT; all phosphorothioate, sugars by position and methylation of C not given here; further chemistry not fully specified) [LNA study compound A]
[3]
  liver concentration (liver uptake): lower level of uptake
